In paper PMC4740771, “Nucleotide-dependent assembly of the peroxisomal receptor export complex” (Scientific Reports, 2016):

What was measured:
Settings in all cases: both partners purified
[1] = biological target: T1, Pex15p(1-315)His (GST removed by thrombin) (S. cerevisiae, UniProt Q08215 1-315); assay: SEC; Pex1/6p/Pex15p complex isolated on GSH-agarose, released by thrombin (GST left on the column), Superose 6 (small-scale and preparative) in presence of ATP; anti-His immunoblot or Coomassie, signal intensities by ImageJ
T1 construct: Pex15p of S. cerevisiae, cytosolic part, residues 1 to 315; Same construct as m10 after thrombin cleavage; detected by anti-His antibodies; Printed mass 36 kDa; alone it eluted at about 100 kDa; also called Pex15pHis; source: E. coli BL21 (DE3), purified (Glutathione Agarose 4B), released from GSH-agarose by thrombin; not shown: GST, N-terminal, cleaved; His6, C-terminal, kept
T1 sequence (looked up): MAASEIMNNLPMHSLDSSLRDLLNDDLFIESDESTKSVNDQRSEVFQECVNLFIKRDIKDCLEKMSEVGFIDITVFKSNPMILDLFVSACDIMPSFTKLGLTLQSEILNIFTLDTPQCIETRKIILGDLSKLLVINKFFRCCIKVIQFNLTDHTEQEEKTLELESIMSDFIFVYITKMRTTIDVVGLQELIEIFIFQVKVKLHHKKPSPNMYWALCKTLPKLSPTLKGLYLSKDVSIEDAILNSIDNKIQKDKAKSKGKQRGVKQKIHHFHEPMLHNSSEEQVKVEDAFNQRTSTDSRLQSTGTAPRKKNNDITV

[2] = biological target: T2, HisPex1p released from HisPex1pGST by thrombin (S. cerevisiae, UniProt P24004 1-1043); assay: as above
T2 construct: Pex1p, type II AAA-ATPase peroxin of yeast; The GST tag held the complex on GSH-agarose during purification and stayed on the column after thrombin cleavage; source: E. coli Tuner (DE3), co-purified with HisPex6p (NiNTA-agarose, GSH-agarose, thrombin release); not shown: His6, N-terminal, kept; GST, C-terminal, cleaved
T2 sequence (looked up): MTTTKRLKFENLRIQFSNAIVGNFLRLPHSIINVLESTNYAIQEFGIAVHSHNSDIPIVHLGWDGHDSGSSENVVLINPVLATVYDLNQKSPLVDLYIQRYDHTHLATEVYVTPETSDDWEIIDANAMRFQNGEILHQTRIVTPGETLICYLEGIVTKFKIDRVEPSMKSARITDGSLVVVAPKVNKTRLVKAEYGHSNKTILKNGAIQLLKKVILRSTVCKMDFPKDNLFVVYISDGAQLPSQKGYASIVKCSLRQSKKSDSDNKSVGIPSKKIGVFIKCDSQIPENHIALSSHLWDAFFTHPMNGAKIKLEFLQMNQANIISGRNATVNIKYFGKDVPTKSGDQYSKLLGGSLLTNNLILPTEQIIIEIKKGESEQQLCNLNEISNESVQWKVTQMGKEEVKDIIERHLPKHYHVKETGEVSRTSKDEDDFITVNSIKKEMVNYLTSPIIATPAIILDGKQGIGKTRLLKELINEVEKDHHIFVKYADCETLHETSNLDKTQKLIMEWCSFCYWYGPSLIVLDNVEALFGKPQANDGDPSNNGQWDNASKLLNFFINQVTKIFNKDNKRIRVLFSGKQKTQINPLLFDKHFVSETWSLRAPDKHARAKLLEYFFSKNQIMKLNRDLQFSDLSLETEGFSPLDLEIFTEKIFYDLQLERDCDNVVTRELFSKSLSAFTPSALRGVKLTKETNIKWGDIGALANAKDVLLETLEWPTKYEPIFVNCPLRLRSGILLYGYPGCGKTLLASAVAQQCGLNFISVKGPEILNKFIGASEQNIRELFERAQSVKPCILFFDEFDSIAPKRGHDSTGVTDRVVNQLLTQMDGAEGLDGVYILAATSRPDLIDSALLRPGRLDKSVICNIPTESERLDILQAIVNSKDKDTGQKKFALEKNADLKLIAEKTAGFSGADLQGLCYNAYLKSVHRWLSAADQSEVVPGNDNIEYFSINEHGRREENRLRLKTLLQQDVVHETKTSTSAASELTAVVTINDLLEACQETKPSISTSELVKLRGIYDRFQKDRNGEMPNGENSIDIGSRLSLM

[3] = biological target: T3, HisPex1p(E798Q) released from its GST fusion (S. cerevisiae, UniProt P24004 1-1043, E798Q); assay: SEC; second gel filtration of the purified heterohexameric complexes after incubation at 37 °C
T3 construct: Pex1p of yeast with a Walker B mutation of the D2 domain; also called Pex1WB^E798Q; Pex1pWB; not shown: His6, N-terminal, kept; GST, C-terminal, cleaved
T3 sequence (looked up): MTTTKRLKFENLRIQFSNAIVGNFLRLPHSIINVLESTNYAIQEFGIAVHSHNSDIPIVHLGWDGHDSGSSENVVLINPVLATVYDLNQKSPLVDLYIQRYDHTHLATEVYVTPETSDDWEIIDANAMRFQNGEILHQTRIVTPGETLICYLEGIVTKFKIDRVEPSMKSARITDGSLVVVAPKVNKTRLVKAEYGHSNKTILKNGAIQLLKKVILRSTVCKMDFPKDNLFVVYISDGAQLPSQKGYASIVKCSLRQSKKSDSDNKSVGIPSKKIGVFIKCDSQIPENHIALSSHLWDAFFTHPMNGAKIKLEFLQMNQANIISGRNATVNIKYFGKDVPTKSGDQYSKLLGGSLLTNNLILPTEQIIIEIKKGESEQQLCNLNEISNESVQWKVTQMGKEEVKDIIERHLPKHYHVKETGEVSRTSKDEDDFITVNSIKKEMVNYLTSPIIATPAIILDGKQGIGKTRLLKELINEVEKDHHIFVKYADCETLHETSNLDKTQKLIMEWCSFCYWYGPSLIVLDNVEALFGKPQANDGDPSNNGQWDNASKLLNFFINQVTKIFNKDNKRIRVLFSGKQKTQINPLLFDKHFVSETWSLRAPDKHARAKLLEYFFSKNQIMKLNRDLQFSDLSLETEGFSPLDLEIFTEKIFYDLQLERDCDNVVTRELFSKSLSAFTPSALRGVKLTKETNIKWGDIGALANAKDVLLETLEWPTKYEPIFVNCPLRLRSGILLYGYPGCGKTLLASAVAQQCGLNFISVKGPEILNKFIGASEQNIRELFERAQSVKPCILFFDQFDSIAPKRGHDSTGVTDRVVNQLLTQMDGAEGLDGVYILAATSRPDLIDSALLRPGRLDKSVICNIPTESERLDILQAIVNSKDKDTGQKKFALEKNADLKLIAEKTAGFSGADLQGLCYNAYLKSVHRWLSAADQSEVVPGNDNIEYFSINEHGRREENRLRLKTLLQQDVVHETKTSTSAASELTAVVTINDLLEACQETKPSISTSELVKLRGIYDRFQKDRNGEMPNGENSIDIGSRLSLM

stoichiometry N [1]: 1 Pex15p per Pex6p | stoichiometry N [2]: 0.9 Pex6p per Pex1p | binding result [3]: binds
B1: HisPex6p (natural protein, S. cerevisiae, UniProt P33760 1-1030, looked up)
chain: MKASLTFSLSGIYAPCSISRDIYLEYGDKKAECLYGTIRLPQYGPGCTPGKIVHCVLDDSLPFCSIVVPSKLFGFMPTQPTMDFCYFEPILDNVVPVLDSVTFLINEQLYSKLMDLPQEMQQIQFLHYKYNINSMETVVHSRDILTSGLCQILNCSPFPQGLVDFTETQLILVNDTEQKLSALKYANEDEEYALPKIGTNSALSIDLESLPCTISRDLLRPAPHINDDNSIYAFTDAETLLRLDVTSGSFITVSNMGCVRLVKLFVLLLPNGFKKRTIYAPPKIIASFPDCSVVTISKSNIGHTDIPIANQVFISRVGGWLQSQKCFQNIILTTLKKFFSESKRILCQNDLIPIAFDSSMADLNIAEENDESDDEDELGQYYKNDSLVWFFVTSAELDCFSKDNSHFIIDPNRTKLITTNITNRRPLPLSRSNLQRYYGFAETFYYDLHIFPYVRQLVNILETSFNCSQRGITLNASVLLHSTTNNVGKATMVRFASKYLGIHLLEIDCLSLTSNSRQLDSTSKIIGYIRAKCENVLPYASPAVIFLAHLDSILLDVNANQDPEAIKLQKSINFEMSKLLDDFTFKFPGTTFVGSVNNIDNVPSSFRSHMRFEILVPVPSEAQRLRIFQWYLSSHELNRDVQQKVPVSYMDNISFSSLSSYSAGLTPLDIKSIVETARMTATARFYQESKKCGWLPQSILITQEDLSKATSKARNEFSVSIGAPQIPNVTWDDIGGIDFVKGEILDTIDMPLKHPELFTSGMKKRSGILFYGPPGTGKTLMAKAIATNFSLNFFSVKGPELLNMYIGESEANVRRVFQKAREAKPCVIFFDEIDSVAPKRGNQGDSGGVMDRIVSQLLAELDGMSTDADGVFVIGATNRPDLLDEALLRPGRFDKLLYLGIPDTDTKQLNILEALTRKFVLDNDVKLIELAKLCPFNYTGADFYALCSDAMLNAMSRIARMVEKKVSQHNELTGENISTRRWFDKIATKEDTKVVVKMEDFLKAQEQLTPSVSRAELNHYEAVRANFEGA
notes: Pex6p, type II AAA-ATPase peroxin of yeast; also called single Pex6p; isolated Pex6p; source: E. coli Tuner (DE3), purified (NiNTA-agarose; with HisPex1pGST also GSH-agarose and size exclusion); not shown: His6, N-terminal, kept
